In patent US20250296985A1 (TRANSLATIONAL HEALTH SCIENCE AND TECHNOLOGY INSTITUTE, published 2025):
Like-named read-outs stand apart in the source and are kept apart here.

How the values were obtained:
[1] = target: T1, Biotinylated wild type SARS-CoV-2 receptor binding domain (RBD) antigen (SARS-CoV-2, Wuhan isolate (wild type), UniProt P0DTC2 319-541)
[2] = target: T1, Biotinylated wild type SARS-CoV-2 …; remark: listed apart in the source

Row | Binder | Kd [1] | koff [1] | kon [1] | Kd [2]
1 | THSC20.HVTR11 (antibody, V domains shown) VH: EVQLVQSGAEVKKPGSSVKVSCKASGGTFSSYTISWVRQAPGQGLEWMGRIIPILGIANYAQKFQGRVTITADKSTSTACMELSSLRSEDTAVYFCARIRGYSGYGSSYYFDYWGQGTLVTVSS VL: QSVLTQPPSVSGAPGQRVTISCTGSSSNIGAGYDVHWYQQLPGTAPKLLIYGNSNRPSGVPDRFSGSKSGTSASLAITGLQAEDEADYYCQSYDSSLSHEVFGGGTKLTVL | < 0.001 nM | < 1e-07 s⁻¹ | 103000 M⁻¹ s⁻¹ | –
2 | THSC20.HVTR39 (antibody, V domains shown) V domain 1: QVQLQESGPGLVRPSETLSLTCIVSGGSINSRSYSWGWIRQPPGKGLEWIGNVYYSGTTYYNPSLKSRVTISVDTSKNQFSLNLSSVTAADTAVYYCARNLFYYDRSGSSHHDAFDIWGQGTMVTVSS V domain 2: HGYVRPLSVAPGQTARITCGGNNIGSKSVHWYQQKPGQAPVLVVYGDGDRPSGIPERFSGSNSGNTATLTISRVEAGDEADYYCQVWDRGSDVWVFG | 0.513 nM | – | – | –
3 | THSC20.HVTR55 (antibody, V domains shown) VH: EVQLVQSGAEVKKPGESLRISCKGSGFRFTNYWIGWVRQMPGKGLEWMGIIYPGDSDTRYSPSFQGQVTISADKSLSTAYLQWSSLQASDTAIYYCARRDRWELDPLDYWGQGTLVTVSS VL: DIVMTQSPSTLSASVGDRVTITCRASQSISSWLAWYQQKPGKAPNLLIYKASSLESGVPSRFSGSGSGTEFTLTISGLQPDDFATYYCQHYNGYPYTFGQGTKLEIK | < 0.001 nM | < 1e-07 s⁻¹ | – | –
4 | THSC20.HVTR26 (antibody, V domains shown) VH: EVQLVESGGGLVQPGGSLRLSCAASGFTVSSNYMSWVRQAPGKGLEWVSAIYSGDSTYYADSVKGRFTISRHNPKNTLYLQMNSLRAEDTAVYYCARLVGALTNIVVSGDGGAFDIWGQGTMVTVSS VL: SYELTQPASVSGSPGQSITISCTGTSSDVGSYNLVSWYQQHPGKAPKLMIYEVSKRPSGVSNRFSGSKSGNTASLTISGLQAEDEVDYYCCSYAGSSTWVFGGGTKLTVL | 0.255 nM | – | – | 0.22 nM
5 | THSC20.HVTR04 (antibody, V domains shown) VH: QVQLVESGGGVVQPGRSLRLSCAASGFTFSNYAIHWVRQAPGKGLEWVAVVSYDGSNKYYAESVKGRFTISRDNSKNTLSLQMISLRPEDTAVYYCASVADTAMVPEWYFDLWGRGTLVTVSS VL: QSVLTQPRSVSGSPGQSVTISCTGTSSDVGAYNYVSWYQQHPGKAPKLMIYDVSARPSGVPDRFSGSKSGNTASLTISGLQAEDEADYYCCSYAGSWVFGGGTKLTVL | 0.196 nM | – | – | 0.19 nM
6 | THSC20.HVTR88 (antibody, V domains shown) VH: QVQLVQSGAEVKKPGASVKVSCKASGYPFTSYVISWVRQAPGQGLEWMGWISAYNGNTDYAQKLQGRVTMTTDTSTSTAYMELRSLRSDDTAVYYCAREGKYSSGWSYSEYFDYWGQGTLVTVSS VL: not shown | 0.427 nM | – | – | –
7 | THSC20.HVTR06 (antibody, V domains shown) VH: QLQLVQSGSELKKPGASVKVSCKASGYTFTKYTVNWVRQAPGQGLEWMGWINTNTGNPTSAQGFTGRFVFSLDTSVSTAYLHISSLKTEDTAVYYCARVLGDQQVVGGDDYYYYYAMDVWGQGTPVTVSS VL: SYELTQPPSVSVSPGQTASITCSGDKLGDKYASWYQQKPGQSPVLVIYQDTKRPSGIPERFSGSNSGNTATLTITGTQAMDETDYYCQAWDNSGWVFGGGTKLTVL | 0.635 nM | – | – | –
